Experimental data: the Human Domainome abundance scans (Beltran et al. 2025)

B1: RUN and FYVE domain-containing protein 1, residues 639 to 698; numbered along this chain, Q96T51 (parent)
chain: WLKDDEATHCRQCEKEFSISRRKHHCRNCGHIFCNTCSSNELALPSYPKPVRVCDSCHTL

Variants of: B1
Assay: abundance fitness (aPCA) (normalised: wild type 0, dead -1); higher = more abundant; growth selection in yeast, the domain comes from the species named
Conditions: Homo sapiens

Abundance fitness of substitutions, site by site:
V51: W -0.535; P -0.403
Y47: R -0.345; P -0.433; L -0.069; I -0.197; K -0.262; Q -0.14; S -0.081; F -0.05; A 0.014; W -0.382; V -0.026; H 0.09; E -0.062; N 0.019; M -0.134; G -0.045; D 0
C57: R -0.673; K -0.613; H -0.957; D -0.619; E -0.711; W -0.682; F -0.794; S -0.716; P -0.697; V -0.665; A -0.756; I -0.88; L -0.475; T -0.467; Q -0.409; Y -0.828; G -0.53
C54: R -0.278; G -0.731; Y -0.845
L60: S -0.067; C -0.625; N -0.126; M -0.194; G 0.229; Y -0.422; W -0.366; V -0.202; A 0.036; F -0.163; E 0.031; T -0.087; I 0.094; P -0.404; Q 0.101; H -0.293; K 0.023
S56: G 0.3; T 0.284; A 0.21; Y 0.188; H 0.355; I 0.136; F 0.271; N 0.246; E 0.331; Q 0.319; K 0.232; C 0.03; P 0.24; M 0.165; D 0.097; W 0.033
S46: P 0.069; K 0.181; V -0.265; E 0.402; G 0.243; N 0.252; Y -0.2; A 0.16; R 0.19; L 0.151; F -0.01; W 0.077; Q 0.009; H -0.004; M 0.086; D 0.365; C -0.133
P45: H -0.022; C -0.325; M -0.073; R 0.009; E -0.081; Q 0.162; S 0.027; I -0.162; D -0.035; T 0.047; V -0.13; K 0.091; N 0.017; Y -0.425; G -0.204; A -0.277; L -0.19
D55: T -0.602; Y -0.31
P48: N -0.324; I -0.419; M -0.309; F -0.818; K -0.178; R -0.308; E 0.118; Q -0.051; A -0.167; H -0.192; W -0.484; Y -0.582
P50: Q -0.219; C -0.128; F -0.211; D -0.295; W -0.549; K 0.023; M -0.162; T -0.233; R -0.185; S -0.253; E -0.078; A 0.05; V -0.074; N -0.043; L -0.085; I -0.807; G -0.118; H -0.347; Y -0.219
N40: T -0.08; L -0.424; P -0.387; Q -0.001; Y -0.906; M -0.021; K 0.078; W -0.85; S -0.004; R 0.153
E41: Q -0.056; I -0.335; L -0.18; G -0.522; M -0.134; N -0.184; Y -0.126; S -0.155; W -0.384; C -0.11; V -0.063; D -0.173; A -0.182; P -0.418; H -0.195; R -0.151; K -0.038; T -0.11
